Residue numbers refer to the chain shown, from its start. Names and notes keep the numbering of the source. Read-outs that look alike come from different tables or passages of the source.
Assays:
Format in all cases: biochemical, rabbit (Oryctolagus cuniculus)
[1] = substrate: CCOc1ccc2c(C(F)(F)F)cc(=O)oc2c1; conditions: other: 2B4 E474Q; Michaelis-Menten fit; 37.0 °C
[2] = substrate: COc1ccc2c(C(F)(F)F)cc(=O)oc2c1; conditions: other: 2B4 E474Q; Michaelis-Menten fit; 37.0 °C
[3] = substrate: CCOc1ccc2c(C(F)(F)F)cc(=O)oc2c1; conditions: other: 2B4 L437A; Michaelis-Menten fit; 37.0 °C
[4] = substrate: COc1ccc2c(C(F)(F)F)cc(=O)oc2c1; conditions: other: 2B4 L437A; Michaelis-Menten fit; 37.0 °C
[5] = substrate: CCOc1ccc2c(C(F)(F)F)cc(=O)oc2c1; conditions: other: 2B4 WT; substrate O-dealkylation, Michaelis-Menten fit; 37.0 °C
[6] = substrate: COc1ccc2c(C(F)(F)F)cc(=O)oc2c1; conditions: other: 2B4 WT; substrate O-dealkylation, Michaelis-Menten fit; 37.0 °C
[7] = substrate: CCOc1ccc2c(C(F)(F)F)cc(=O)oc2c1; conditions: other: 2B4 H172Q; Michaelis-Menten fit; 37.0 °C
[8] = substrate: COc1ccc2c(C(F)(F)F)cc(=O)oc2c1; conditions: other: 2B4 H172Q; Michaelis-Menten fit; 37.0 °C
[9] = substrate: CCOc1ccc2c(C(F)(F)F)cc(=O)oc2c1; conditions: other: 2B4 E474D; Michaelis-Menten fit; 37.0 °C
[10] = substrate: COc1ccc2c(C(F)(F)F)cc(=O)oc2c1; conditions: other: 2B4 E474D; Michaelis-Menten fit; 37.0 °C
[11] = substrate: CCOc1ccc2c(C(F)(F)F)cc(=O)oc2c1; conditions: other: 2B4 H172A; Michaelis-Menten fit; 37.0 °C
[12] = substrate: COc1ccc2c(C(F)(F)F)cc(=O)oc2c1; conditions: other: 2B4 H172A; Michaelis-Menten fit; 37.0 °C

B1: P450 2B4 E474Q (Oryctolagus cuniculus; E474Q) (protein)
chain: MAKKTSSKGKLPPGPSPLPVLGNLLQMDRKGLLRSFLRLREKYGDVFTVYLGSRPVVVLCGTDAIREALVDQAEAFSGRGKIAVVDPIFQGYGVIFANGERWRALRRFSLATMRDFGMGKRSVEERIQEEARCLVEELRKSKGALLDNTLLFHSITSNIICSIVFGKRFDYKDPVFLRLLDLFFQSFSLISSFSSQVFELFPGFLKHFPGTHRQIYRNLQEINTFIGQSVEKHRATLDPSNPRDFIDVYLLRMEKDKSDPSSEFHHQNLILTVLSLFFAGTETTSTTLRYGFLLMLKYPHVTERVQKEIEQVIGSHRPPALDDRAKMPYTDAVIHEIQRLGDLIPFGVPHTVTKDTQFRGYVIPKNTEVFPVLSSALHDPRYFETPNTFNPGHFLDANGALKRNEGFMPFSLGKRICLGEGIARTELFLFFTTILQNFSIASPVPPEDIDLTPRQSGVGNVPPSYQIRFLAR
Km [1]: 64 ± 8 µM
kcat [1]: 0.02 ± 0.0033 s⁻¹
kcat/Km [1]: 333 M⁻¹ s⁻¹
Km [2]: 178 ± 17 µM
kcat [2]: 0.04 ± 0.005 s⁻¹

B2: P450 2B4 L437A (Oryctolagus cuniculus; L437A) (protein)
chain: B1 chain with L418A, Q455E
Km [3]: 25 ± 4 µM
kcat [3]: 0.045 ± 0.0033 s⁻¹
kcat/Km [3]: 2000 M⁻¹ s⁻¹
Km [4]: 85 ± 8 µM
kcat [4]: 0.03 ± 0.0033 s⁻¹
kcat/Km [4]: 333 M⁻¹ s⁻¹

B3: P450 2B4 wild type (Oryctolagus cuniculus) (protein)
chain: B1 chain with Q455E
Km [5]: 25 ± 3 µM
kcat [5]: 0.16 ± 0.0067 s⁻¹
kcat/Km [5]: 6000 M⁻¹ s⁻¹
Km [6]: 132 ± 6 µM
kcat [6]: 0.188 ± 0.0033 s⁻¹
kcat/Km [6]: 1330 M⁻¹ s⁻¹

B4: P450 2B4 H172Q (Oryctolagus cuniculus; H172Q) (protein)
chain: B1 chain with H153Q, Q455E
Km [7]: 48 ± 6 µM
kcat [7]: 0.0283 ± 0.005 s⁻¹
kcat/Km [7]: 667 M⁻¹ s⁻¹
Km [8]: 115 ± 15 µM
kcat [8]: 0.123 ± 0.0083 s⁻¹
kcat/Km [8]: 1000 M⁻¹ s⁻¹

B5: P450 2B4 E474D (Oryctolagus cuniculus; E474D) (protein)
chain: B1 chain with Q455D
Km [9]: 77 ± 10 µM
kcat [9]: 0.0067 ± 0.0017 s⁻¹
Km [10]: 185 ± 14 µM
kcat [10]: 0.0633 ± 0.0033 s⁻¹
kcat/Km [10]: 333 M⁻¹ s⁻¹

B6: P450 2B4 H172A (Oryctolagus cuniculus; H172A) (protein)
chain: B1 chain with H153A, Q455E
Km [11]: 26 ± 4 µM
kcat [11]: 0.07 ± 0.005 s⁻¹
kcat/Km [11]: 2500 M⁻¹ s⁻¹
Km [12]: 126 ± 11 µM
kcat [12]: 0.0867 ± 0.01 s⁻¹
kcat/Km [12]: 667 M⁻¹ s⁻¹

— PMC3911823 (The FEBS journal, 2011)
